The values below come from US20210230570.

For data set [1], the target named is Antithrombin III (plasma purified human AT-III, Molecular Innovations), as AT-III/UFH complex.
For data set [2], the target named is plasma purified human antithrombin III (AT-III) in complex with full-length unfractionated heparin (UFH).

Factor X (FX), P00742, sequence (P00742 whole entry, looked up): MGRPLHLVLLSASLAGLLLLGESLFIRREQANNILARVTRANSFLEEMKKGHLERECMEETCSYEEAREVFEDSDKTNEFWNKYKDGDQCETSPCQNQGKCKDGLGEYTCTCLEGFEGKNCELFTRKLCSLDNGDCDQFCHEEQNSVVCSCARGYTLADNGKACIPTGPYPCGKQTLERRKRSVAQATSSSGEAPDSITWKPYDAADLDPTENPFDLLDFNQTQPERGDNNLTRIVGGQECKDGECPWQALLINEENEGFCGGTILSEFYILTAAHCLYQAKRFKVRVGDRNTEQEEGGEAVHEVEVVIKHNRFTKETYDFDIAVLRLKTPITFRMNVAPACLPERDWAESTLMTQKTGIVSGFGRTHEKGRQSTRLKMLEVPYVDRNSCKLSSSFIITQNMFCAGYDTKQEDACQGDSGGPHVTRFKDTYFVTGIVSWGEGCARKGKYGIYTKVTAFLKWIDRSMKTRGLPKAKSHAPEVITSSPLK

B1: FIXa-K247N/N249S/N260S (protein)
chain 1: YNSGKLEEFVQGNLERECMEEKCSFEEAREVFENTERTTEFWKQYVDGDQCESNPCLNGGSCKDDINSYECWCPFGFEGKNCELDVTCNIKNGRCEQFCKNSADNKVVCSCTEGYRLAENQKSCEPAVPFPCGRVSVSQTSKLTR
chain 2: VVGGEDAKPGQFPWQVVLNGKVDAFCGGSIVNEKWIVTAAHCVETGVKITVVAGEHNIEETEHTEQNRSVIRIIPHHNYSAAINKYNHDIALLELDEPLVLNSYVTPICIADKEYTNIFLKFGSGYVSGWGRVFHKGRSALVLQYLRVPLVDRATCLRSTKFTIYNNMFCAGFHEGGRDSCQGDSGGPHVTEVEGTSFLTGIISWGEECAMKGKYGIYTKVSRYVNWIKEKTKLT
In turn, B1 registered a K0.5-mut/K0.5-wt (against Catalyst Biosciences WT FIXa) in data set [1] of 8.1. Moreover, in the data set with Factor X (FX), P00742, the KM (nM); Catalytic activity of FIXa variants (KM) came out at 114 nM and the kcat of FX activation by FIXa in the Xase complex (FVIIIa, PC/PS vesicles, Ca2+) came to 3.3 s⁻¹.

B2: FIXa R318Y/R338E/R403E/T412A (protein)
chain 1: YNSGKLEEFVQGNLERECMEEKCSFEEAREVFENTERTTEFWKQYVDGDQCESNPCLNGGSCKDDINSYECWCPFGFEGKNCELDVTCNIKNGRCEQFCKNSADNKVVCSCTEGYRLAENQKSCEPAVPFPCGRVSVSQTSKLTR
chain 2: VVGGEDAKPGQFPWQVVLNGKVDAFCGGSIVNEKWIVTAAHCVETGVKITVVAGEHNIEETEHTEQKRNVIRIIPHHNYNAAINKYNHDIALLELDEPLVLNSYVTPICIADKEYTNIFLKFGSGYVSGWGRVFHKGYSALVLQYLRVPLVDRATCLESTKFTIYNNMFCAGFHEGGRDSCQGDSGGPHVTEVEGTSFLTGIISWGEECAMKGKYGIYTKVSEYVNWIKEKAKLT
With B2, the K0.5-mut/K0.5-wt in data set [2] is more than 517 fold.

B3: FIXa R318Y/R338E/T412A (protein)
chain 1: YNSGKLEEFVQGNLERECMEEKCSFEEAREVFENTERTTEFWKQYVDGDQCESNPCLNGGSCKDDINSYECWCPFGFEGKNCELDVTCNIKNGRCEQFCKNSADNKVVCSCTEGYRLAENQKSCEPAVPFPCGRVSVSQTSKLTR
chain 2: VVGGEDAKPGQFPWQVVLNGKVDAFCGGSIVNEKWIVTAAHCVETGVKITVVAGEHNIEETEHTEQKRNVIRIIPHHNYNAAINKYNHDIALLELDEPLVLNSYVTPICIADKEYTNIFLKFGSGYVSGWGRVFHKGYSALVLQYLRVPLVDRATCLESTKFTIYNNMFCAGFHEGGRDSCQGDSGGPHVTEVEGTSFLTGIISWGEECAMKGKYGIYTKVSRYVNWIKEKAKLT
On to B3, for which, in data set [2], the K0.5-mut/K0.5-wt was determined as 396 fold.

B4: FIXa D104N/K106S/K228N/K247N/N249S (protein)
chain 1: YNSGKLEEFVQGNLERECMEEKCSFEEAREVFENTERTTEFWKQYVDGDQCESNPCLNGGSCKDDINSYECWCPFGFEGKNCELDVTCNIKNGRCEQFCKNSANNSVVCSCTEGYRLAENQKSCEPAVPFPCGRVSVSQTSKLTR
chain 2: VVGGEDAKPGQFPWQVVLNGKVDAFCGGSIVNEKWIVTAAHCVETGVNITVVAGEHNIEETEHTEQNRSVIRIIPHHNYNAAINKYNHDIALLELDEPLVLNSYVTPICIADKEYTNIFLKFGSGYVSGWGRVFHKGRSALVLQYLRVPLVDRATCLRSTKFTIYNNMFCAGFHEGGRDSCQGDSGGPHVTEVEGTSFLTGIISWGEECAMKGKYGIYTKVSRYVNWIKEKTKLT
For B4, the K0.5-mut/K0.5-wt in data set [2] was 2.1 fold.

B5: FIXa R318Y/R338E/R403E/E410N/T412A (protein)
chain 1: YNSGKLEEFVQGNLERECMEEKCSFEEAREVFENTERTTEFWKQYVDGDQCESNPCLNGGSCKDDINSYECWCPFGFEGKNCELDVTCNIKNGRCEQFCKNSADNKVVCSCTEGYRLAENQKSCEPAVPFPCGRVSVSQTSKLTR
chain 2: VVGGEDAKPGQFPWQVVLNGKVDAFCGGSIVNEKWIVTAAHCVETGVKITVVAGEHNIEETEHTEQKRNVIRIIPHHNYNAAINKYNHDIALLELDEPLVLNSYVTPICIADKEYTNIFLKFGSGYVSGWGRVFHKGYSALVLQYLRVPLVDRATCLESTKFTIYNNMFCAGFHEGGRDSCQGDSGGPHVTEVEGTSFLTGIISWGEECAMKGKYGIYTKVSEYVNWIKNKAKLT
As a reminder, the KM is the substrate concentration at which the rate is half of its maximum. B5 had a K0.5-mut/K0.5-wt in data set [2] of more than 517 fold. Moreover, the KM with Factor X (FX), P00742 came to 0.0335 µM.

B6: FIXa K228N/K247N/N249S/R318Y/R338E/R403E/E410N (protein)
chain 1: YNSGKLEEFVQGNLERECMEEKCSFEEAREVFENTERTTEFWKQYVDGDQCESNPCLNGGSCKDDINSYECWCPFGFEGKNCELDVTCNIKNGRCEQFCKNSADNKVVCSCTEGYRLAENQKSCEPAVPFPCGRVSVSQTSKLTR
chain 2: VVGGEDAKPGQFPWQVVLNGKVDAFCGGSIVNEKWIVTAAHCVETGVNITVVAGEHNIEETEHTEQNRSVIRIIPHHNYNAAINKYNHDIALLELDEPLVLNSYVTPICIADKEYTNIFLKFGSGYVSGWGRVFHKGYSALVLQYLRVPLVDRATCLESTKFTIYNNMFCAGFHEGGRDSCQGDSGGPHVTEVEGTSFLTGIISWGEECAMKGKYGIYTKVSEYVNWIKNKTKLT
For B6, in data set [2], the K0.5-mut/K0.5-wt is more than 517 fold. In addition, the KM with Factor X (FX), P00742 was determined as 0.0558 µM.

B7: FIXa R318Y/R338E/N346D/R403E/E410N (protein)
chain 1: YNSGKLEEFVQGNLERECMEEKCSFEEAREVFENTERTTEFWKQYVDGDQCESNPCLNGGSCKDDINSYECWCPFGFEGKNCELDVTCNIKNGRCEQFCKNSADNKVVCSCTEGYRLAENQKSCEPAVPFPCGRVSVSQTSKLTR
chain 2: VVGGEDAKPGQFPWQVVLNGKVDAFCGGSIVNEKWIVTAAHCVETGVKITVVAGEHNIEETEHTEQKRNVIRIIPHHNYNAAINKYNHDIALLELDEPLVLNSYVTPICIADKEYTNIFLKFGSGYVSGWGRVFHKGYSALVLQYLRVPLVDRATCLESTKFTIYDNMFCAGFHEGGRDSCQGDSGGPHVTEVEGTSFLTGIISWGEECAMKGKYGIYTKVSEYVNWIKNKTKLT
In the case of B7, the K0.5-mut/K0.5-wt in data set [2] was more than 517 fold.

B8: FIXa N260S/R318Y/R338E/R403E/E410N (protein)
chain 1: YNSGKLEEFVQGNLERECMEEKCSFEEAREVFENTERTTEFWKQYVDGDQCESNPCLNGGSCKDDINSYECWCPFGFEGKNCELDVTCNIKNGRCEQFCKNSADNKVVCSCTEGYRLAENQKSCEPAVPFPCGRVSVSQTSKLTR
chain 2: VVGGEDAKPGQFPWQVVLNGKVDAFCGGSIVNEKWIVTAAHCVETGVKITVVAGEHNIEETEHTEQKRNVIRIIPHHNYSAAINKYNHDIALLELDEPLVLNSYVTPICIADKEYTNIFLKFGSGYVSGWGRVFHKGYSALVLQYLRVPLVDRATCLESTKFTIYNNMFCAGFHEGGRDSCQGDSGGPHVTEVEGTSFLTGIISWGEECAMKGKYGIYTKVSEYVNWIKNKTKLT
As for B8, the K0.5-mut/K0.5-wt in data set [2] was more than 517 fold.

B9: FIXa Y155F/K228N/K247N/N249S (protein)
chain 1: YNSGKLEEFVQGNLERECMEEKCSFEEAREVFENTERTTEFWKQYVDGDQCESNPCLNGGSCKDDINSYECWCPFGFEGKNCELDVTCNIKNGRCEQFCKNSADNKVVCSCTEGYRLAENQKSCEPAVPFPCGRVSVSQTSKLTR
chain 2: VVGGEDAKPGQFPWQVVLNGKVDAFCGGSIVNEKWIVTAAHCVETGVNITVVAGEHNIEETEHTEQNRSVIRIIPHHNYNAAINKYNHDIALLELDEPLVLNSYVTPICIADKEYTNIFLKFGSGYVSGWGRVFHKGRSALVLQYLRVPLVDRATCLRSTKFTIYNNMFCAGFHEGGRDSCQGDSGGPHVTEVEGTSFLTGIISWGEECAMKGKYGIYTKVSRYVNWIKEKTKLT
B9 had a K0.5-mut/K0.5-wt in data set [2] of 1.4 fold.

B10: FIXa R318Y/R338E/E410N/T412V (protein)
chain 1: YNSGKLEEFVQGNLERECMEEKCSFEEAREVFENTERTTEFWKQYVDGDQCESNPCLNGGSCKDDINSYECWCPFGFEGKNCELDVTCNIKNGRCEQFCKNSADNKVVCSCTEGYRLAENQKSCEPAVPFPCGRVSVSQTSKLTR
chain 2: VVGGEDAKPGQFPWQVVLNGKVDAFCGGSIVNEKWIVTAAHCVETGVKITVVAGEHNIEETEHTEQKRNVIRIIPHHNYNAAINKYNHDIALLELDEPLVLNSYVTPICIADKEYTNIFLKFGSGYVSGWGRVFHKGYSALVLQYLRVPLVDRATCLESTKFTIYNNMFCAGFHEGGRDSCQGDSGGPHVTEVEGTSFLTGIISWGEECAMKGKYGIYTKVSRYVNWIKNKVKLT
Turning to B10, the K0.5-mut/K0.5-wt in data set [2] turned out to be 252 fold.

B11: FIXa R318Y/R338E/R403E/E410N/T412V (protein)
chain 1: YNSGKLEEFVQGNLERECMEEKCSFEEAREVFENTERTTEFWKQYVDGDQCESNPCLNGGSCKDDINSYECWCPFGFEGKNCELDVTCNIKNGRCEQFCKNSADNKVVCSCTEGYRLAENQKSCEPAVPFPCGRVSVSQTSKLTR
chain 2: VVGGEDAKPGQFPWQVVLNGKVDAFCGGSIVNEKWIVTAAHCVETGVKITVVAGEHNIEETEHTEQKRNVIRIIPHHNYNAAINKYNHDIALLELDEPLVLNSYVTPICIADKEYTNIFLKFGSGYVSGWGRVFHKGYSALVLQYLRVPLVDRATCLESTKFTIYNNMFCAGFHEGGRDSCQGDSGGPHVTEVEGTSFLTGIISWGEECAMKGKYGIYTKVSEYVNWIKNKVKLT
B11: the K0.5-mut/K0.5-wt in data set [2] was more than 517 fold. Moreover, in the data set with Factor X (FX), P00742, the KM was 0.0443 µM.

B12: FIXa Y155F/N260S/R318Y/R338E/R403E/E410N (protein)
chain 1: YNSGKLEEFVQGNLERECMEEKCSFEEAREVFENTERTTEFWKQYVDGDQCESNPCLNGGSCKDDINSYECWCPFGFEGKNCELDVTCNIKNGRCEQFCKNSADNKVVCSCTEGYRLAENQKSCEPAVPFPCGRVSVSQTSKLTR
chain 2: VVGGEDAKPGQFPWQVVLNGKVDAFCGGSIVNEKWIVTAAHCVETGVKITVVAGEHNIEETEHTEQKRNVIRIIPHHNYSAAINKYNHDIALLELDEPLVLNSYVTPICIADKEYTNIFLKFGSGYVSGWGRVFHKGYSALVLQYLRVPLVDRATCLESTKFTIYNNMFCAGFHEGGRDSCQGDSGGPHVTEVEGTSFLTGIISWGEECAMKGKYGIYTKVSEYVNWIKNKTKLT
In turn, B12 displayed a K0.5-mut/K0.5-wt in data set [2] of 501 fold.

B13: FIXa D104N/K106S/N260S/R318Y/R338E/R403E/E410N (protein)
chain 1: YNSGKLEEFVQGNLERECMEEKCSFEEAREVFENTERTTEFWKQYVDGDQCESNPCLNGGSCKDDINSYECWCPFGFEGKNCELDVTCNIKNGRCEQFCKNSANNSVVCSCTEGYRLAENQKSCEPAVPFPCGRVSVSQTSKLTR
chain 2: VVGGEDAKPGQFPWQVVLNGKVDAFCGGSIVNEKWIVTAAHCVETGVKITVVAGEHNIEETEHTEQKRNVIRIIPHHNYSAAINKYNHDIALLELDEPLVLNSYVTPICIADKEYTNIFLKFGSGYVSGWGRVFHKGYSALVLQYLRVPLVDRATCLESTKFTIYNNMFCAGFHEGGRDSCQGDSGGPHVTEVEGTSFLTGIISWGEECAMKGKYGIYTKVSEYVNWIKNKTKLT
In turn, B13 returned a K0.5-mut/K0.5-wt in data set [2] of more than 517 fold.
